Assay results reported in publication PMC9198812, “Residues located in the primase domain of the bacteriophage T7 primase-helicase are essential for loading the hexameric complex onto DNA”.

Key:
[1] = target: gp4-Y111A (bacteriophage T7, UniProt P03692 1-566, Y111A); experiment: double-filter binding; 1 mM [beta,gamma-CH2] dTTP, 10 mM MgCl2; Filter binding: 40 mM Tris-HCl pH 7.5, 50 mM potassium glutamate, 10 mM MgCl2, 5 mM DTT, 1 mM [beta,gamma-CH2] dTTP, 30 min, 25 C; mass photometry: 40 mM Tris-HCl pH 7.5, 150 mM KCl, 10 mM MgCl2, 25 C, 8.7 nM gp4 hexamer, 10 nM ssDNA; settings: protein: recombinant; tags: His (implied: pET28, TALON); chain copies: 6; label: 5'-32P; single strand
[2] = target: gp4 WT (T7 primase-helicase) (bacteriophage T7, UniProt P03692 1-566); experiment: as above; settings: protein: recombinant; tags: His (implied: pET28, TALON); chain copies: 6; label: 5'-32P; single strand

Binder: ATGACCATGATTTCGACGTTTTTTTTTTTGGGGATCCTCTAACCTGCGCA (ssDNA) [50-nt ssDNA, 5'-32P]
- Kd [1]: 93 nM
- Kd [2]: 14 nM
